Measurements reported in patent EP4722245A1, “ANTIBODY TARGETING ITGA2, ANTIBODY DRUG CONJUGATE THEREOF, AND USE” (Foreseen Technology (Beijing) Co., Ltd., priority 2023, dated 2024).
Where a chain is given by its changes, count along the chain named.

B1: FS002-A153-H5L5-vcMMAE (antibody, human IgG1, kappa, V domains shown)
VH: QVQLVQSGAEVKKPGASVKVSCKASGYTFTDYEMHWVRQAPGQGLEWMGTIDPETGGTTYAQKFQGRVTMTADTSISTAYMELSRLRSDDTAVYYCARSGYYVSSYESYAMDYWGQGTTVTVSS
VL: EIVMTQSPPTLSLSPGERVTMSCRSSQSLLNSGNQKNYLTWYQQKPGQAPRLLIYGASTRESGVPARFSGSGSGTDFTLTISSLQPEDFAVYYCQNDYSYPFTFGGGTKLEIKR
modifications: vc-MMAE, attachment residues not stated; vc-MMAE (mc-vc-PAB-MMAE) conjugated after TCEP reduction, DAR 4.0 per antibody; attachment residues not stated
B2: FS002-A153-H5L2-vcMMAE (antibody, human IgG1, kappa, V domains shown)
VH: B1 VH
VL: DIVMTQSPDSLAVSLGERVTMNCKSSQSLLNSGNQKNYLTWYQQKPGQPPKLLIYGASTRESGVPDRFSGSGSGTDFTLTISSLQAEDVAVYYCQNDYSYPFTFGGGTKLEIKR
modifications: vc-MMAE, attachment residues not stated; vc-MMAE (mc-vc-PAB-MMAE) conjugated after TCEP reduction, DAR 3.5 per antibody; attachment residues not stated
B3: FS002-A103-H4L2-vcMMAE (antibody, human IgG1, kappa, V domains shown)
VH: B1 VH with T50V, A61N, M70L, A97S
VL: EIVMTQSPKTMSMSPGERVTLSCKASENVGTYVSWYQQKPGQAPRLLIYGASTRESGVPDRFSGSGSGTDFTLTISSLQPEDFAVYYCQNDYSYPFTFGGGTKLEIKR
modifications: vc-MMAE, attachment residues not stated; vc-MMAE (mc-vc-PAB-MMAE) conjugated after TCEP reduction, DAR 3.5 per antibody; attachment residues not stated
B4: FS002-A103-H4L3-vcMMAE (antibody, human IgG1, kappa, V domains shown)
VH: B1 VH with T50V, A61N, M70L, A97S
VL: B3 VL with K9P, D60A
modifications: vc-MMAE, attachment residues not stated; vc-MMAE (mc-vc-PAB-MMAE) conjugated after TCEP reduction, DAR 3.5 per antibody; attachment residues not stated
B5: FS002-A208-H4L4-vcMMAE (antibody, human IgG1, kappa, V domains shown)
VH: B1 VH with M34I, M48I, T50A, T59N, A61N, M70L, A97S, S105N
VL: DIQMTQSPSSLSASVGDRVTITCRASQNVGTNVAWYQQKPEKAPKSLIYSASYRFSGVPSRFSGSGSGTDFTLTISSLQPEDFATYYCQQYNIYPLSFGGGTKLELKR
modifications: vc-MMAE, attachment residues not stated; vc-MMAE (mc-vc-PAB-MMAE) conjugated after TCEP reduction, DAR 4.1 per antibody; attachment residues not stated
B6: FS002-A226-H5L4-vcMMAE (antibody, human IgG1, kappa, V domains shown)
VH: B1 VH with M34I, T50A, T59N, A97S, S105N
VL: DIQLTQSPSSLSASVGDRVTITCRASQDIKSYLSWYQQKPGKAPKLLIYDTSNLASGVPSRFSGSGSGTDFTLTISSLQPEDFATYYCQQWSSYPFTFGGGTKLEIKR
modifications: vc-MMAE, attachment residues not stated; vc-MMAE (mc-vc-PAB-MMAE) conjugated after TCEP reduction, DAR 3.8 per antibody; attachment residues not stated
B7: FS002-A208-H5L4-vcMMAE (antibody, human IgG1, kappa, V domains shown)
VH: B1 VH with M34I, T50A, T59N, A97S, S105N
VL: B5 VL
modifications: vc-MMAE, attachment residues not stated; vc-MMAE (mc-vc-PAB-MMAE) conjugated after TCEP reduction, DAR 4.0 per antibody; attachment residues not stated
B8: FS002-A153-H3L3-vcMMAE (antibody, human IgG1, kappa, V domains shown)
VH: B1 VH with V20L, M48I, A61N, M70L, A97S
VL: B2 VL with V19A, M21I
modifications: vc-MMAE, attachment residues not stated; vc-MMAE (mc-vc-PAB-MMAE) conjugated after TCEP reduction, DAR 3.8 per antibody; attachment residues not stated
B9: FS002-A153-H5L1-vcMMAE (antibody, human IgG1, kappa, V domains shown)
VH: B1 VH
VL: B2 VL with N22S, S69T
modifications: vc-MMAE, attachment residues not stated; vc-MMAE (mc-vc-PAB-MMAE) conjugated after TCEP reduction, DAR 3.7 per antibody; attachment residues not stated
B10: FS002-A153-H4L2-vcMMAE (antibody, human IgG1, kappa, V domains shown)
VH: B1 VH with M70L, A97S
VL: B2 VL
modifications: vc-MMAE, attachment residues not stated; vc-MMAE (mc-vc-PAB-MMAE) conjugated after TCEP reduction, DAR 3.8 per antibody; attachment residues not stated
B11: FS002-A103-H4L4-vcMMAE (antibody, human IgG1, kappa, V domains shown)
VH: B1 VH with T50V, A61N, M70L, A97S
VL: B3 VL with K9P, M11L, M13L, K24R, V58I, D60A
modifications: vc-MMAE, attachment residues not stated; vc-MMAE (mc-vc-PAB-MMAE) conjugated after TCEP reduction, DAR 3.7 per antibody; attachment residues not stated
B12: Humanized antibody FS002-A103-H4L4 (antibody, human IgG1, kappa, V domains shown)
VH: B1 VH with T50V, A61N, M70L, A97S
VL: B3 VL with K9P, M11L, M13L, K24R, V58I, D60A
notes: Humanized IgG1 kappa
B13: Vatelizumab-vc-MMAE: Antibody-drug conjugate of the positive control antibody Vatelizumab with vc-MMAE linker-payload (conjugate, chains of the INN, looked up)
VH: QVQLQESGPGLVKPSETLSLTCTVSGFSLTNYGIHWIRQPPGKGLEWLGVIWARGFTNYNSALMSRLTISKDNSKNQVSLKLSSVTAADTAVYYCARANDGVYYAMDYWGQGTLVTVSS
VL: DFVMTQSPAFLSVTPGEKVTITCSAQSSVNYIHWYQQKPDQAPKKLIYDTSKLASGVPSRFSGSGSGTDYTFTISSLEAEDAATYYCQQWTTNPLTFGQGTKVEIK
modifications: vc-MMAE linker-payload
B14: FS002-A226-H3L4-vcMMAE (antibody, human IgG1, kappa, V domains shown)
VH: QLQLVQSGAEVKKPGASVKVSCKASGYTFTDYEIHWVRQAPGQGLEWIGAIDPETGGTNYNQKFNDRVTLTADTSISTAYMELSRLRSDDTAVYYCSRSGYYVSNYESYAMDYWGQGTTVTVSS
VL: B6 VL
modifications: vc-MMAE, attachment residues not stated; vc-MMAE (mc-vc-PAB-MMAE) conjugated after TCEP reduction, DAR 3.8 per antibody; attachment residues not stated

Key:
[1] = target: ITGA2 protein on the surface of human tumor cells (human) (UniProt P17301); test: cell-based or functional assay
[2] = target: T1, ITGA2 protein on the surface of human tumor cells (human, UniProt P17301 30-1181); test: cell-based or functional assay
T1 sequence (looked up): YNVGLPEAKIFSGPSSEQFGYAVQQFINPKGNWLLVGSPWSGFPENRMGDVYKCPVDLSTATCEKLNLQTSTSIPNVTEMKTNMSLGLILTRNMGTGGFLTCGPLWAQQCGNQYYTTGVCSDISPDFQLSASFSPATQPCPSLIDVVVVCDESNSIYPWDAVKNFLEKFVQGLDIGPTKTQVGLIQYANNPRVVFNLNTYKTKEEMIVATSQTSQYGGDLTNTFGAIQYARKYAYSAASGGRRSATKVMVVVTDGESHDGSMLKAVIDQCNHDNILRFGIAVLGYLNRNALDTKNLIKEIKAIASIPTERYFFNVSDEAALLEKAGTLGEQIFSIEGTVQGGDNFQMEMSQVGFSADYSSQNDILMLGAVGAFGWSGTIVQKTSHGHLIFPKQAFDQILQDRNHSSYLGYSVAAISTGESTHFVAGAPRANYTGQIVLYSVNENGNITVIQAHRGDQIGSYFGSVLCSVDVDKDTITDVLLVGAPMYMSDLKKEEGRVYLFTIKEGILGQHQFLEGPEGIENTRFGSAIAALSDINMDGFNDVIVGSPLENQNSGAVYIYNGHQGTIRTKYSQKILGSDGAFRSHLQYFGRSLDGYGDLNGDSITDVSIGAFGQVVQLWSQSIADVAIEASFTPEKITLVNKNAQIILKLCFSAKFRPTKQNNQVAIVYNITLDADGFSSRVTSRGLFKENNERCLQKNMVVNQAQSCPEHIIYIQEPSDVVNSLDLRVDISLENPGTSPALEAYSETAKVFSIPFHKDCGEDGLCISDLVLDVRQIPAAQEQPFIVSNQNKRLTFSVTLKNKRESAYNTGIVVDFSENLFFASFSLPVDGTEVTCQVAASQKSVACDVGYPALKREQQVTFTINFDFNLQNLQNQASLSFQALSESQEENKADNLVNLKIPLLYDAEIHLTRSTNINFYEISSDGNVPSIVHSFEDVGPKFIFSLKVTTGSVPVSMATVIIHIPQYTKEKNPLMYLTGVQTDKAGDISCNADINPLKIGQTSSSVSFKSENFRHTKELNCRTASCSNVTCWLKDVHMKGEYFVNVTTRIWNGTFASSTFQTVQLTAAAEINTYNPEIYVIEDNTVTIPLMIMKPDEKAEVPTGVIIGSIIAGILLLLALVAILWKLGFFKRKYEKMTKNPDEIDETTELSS

[3] = target: T1, ITGA2 protein on the surface of human …; test: flow cytometry on HuCCT1 cells
ITGA2-His = target: T2, ITGA2-His (UniProt P17301 30-1132, limits assumed); test: ELISA, plate coated with 2 ug/mL ITGA2-His, anti-human IgG-Fc-HRP detection
T2 construct: Coated on the ELISA plate at 2 ug/mL; whole entry P17301 is named; also called ITGA2 protein; not shown: His tag
T2 sequence (looked up): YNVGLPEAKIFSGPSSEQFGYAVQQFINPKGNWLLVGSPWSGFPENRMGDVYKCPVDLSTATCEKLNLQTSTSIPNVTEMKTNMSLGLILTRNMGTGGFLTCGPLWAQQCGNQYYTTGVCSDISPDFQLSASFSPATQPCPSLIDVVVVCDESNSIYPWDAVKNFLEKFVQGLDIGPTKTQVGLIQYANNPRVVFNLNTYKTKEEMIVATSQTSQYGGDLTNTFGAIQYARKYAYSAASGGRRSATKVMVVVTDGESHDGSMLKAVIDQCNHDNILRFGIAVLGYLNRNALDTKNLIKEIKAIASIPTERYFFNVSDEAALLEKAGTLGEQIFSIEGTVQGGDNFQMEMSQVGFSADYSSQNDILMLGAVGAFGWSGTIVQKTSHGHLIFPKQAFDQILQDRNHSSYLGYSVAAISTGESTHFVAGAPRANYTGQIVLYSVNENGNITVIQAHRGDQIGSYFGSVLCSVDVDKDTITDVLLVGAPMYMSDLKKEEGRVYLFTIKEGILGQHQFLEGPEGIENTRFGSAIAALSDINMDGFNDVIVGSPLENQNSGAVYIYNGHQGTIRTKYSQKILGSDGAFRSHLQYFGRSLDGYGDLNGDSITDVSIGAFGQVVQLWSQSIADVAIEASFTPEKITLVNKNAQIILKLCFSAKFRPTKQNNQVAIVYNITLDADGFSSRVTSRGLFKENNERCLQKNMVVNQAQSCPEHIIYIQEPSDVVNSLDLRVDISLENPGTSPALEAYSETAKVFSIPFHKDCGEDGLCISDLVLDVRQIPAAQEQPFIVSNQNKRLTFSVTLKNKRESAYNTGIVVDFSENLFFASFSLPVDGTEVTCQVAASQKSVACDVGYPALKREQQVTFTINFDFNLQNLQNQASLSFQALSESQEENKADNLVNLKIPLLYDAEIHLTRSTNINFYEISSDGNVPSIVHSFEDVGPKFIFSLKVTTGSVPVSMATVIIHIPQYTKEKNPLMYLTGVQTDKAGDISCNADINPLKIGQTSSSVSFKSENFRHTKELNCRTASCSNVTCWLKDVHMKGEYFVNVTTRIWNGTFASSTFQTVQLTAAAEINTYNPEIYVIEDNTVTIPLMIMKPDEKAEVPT

[4] = system: Human epidermal cancer cells A431; test: ADC cancer cell killing assay (Cell-Titer-Glo 2.0); type: cell-based; conditions: 5 days at 37°C, 3-fold gradient, 11 points
Method: Human epidermal cancer cells A431 available from Procell Life Science&Technology Co.,Ltd. (Wuhan) were seeded into a 96-well plate at 2500 cells/well. It was then incubated in a 5% CO2 incubator overnight at 37°C. Half of the medium was removed from the cell plate on the next day. A 2x hIgG1-vcMMAE (negative control ADC, provided by ChemPartner), a control antibody and the ADC prepared as the above were prepared with a complete culture medium, and then diluted at a 3-fold gradient with 11 specific concentration points in total. Serial dilutions of the above molecules were added to the appropriate wells, and it was then incubated in a 5% CO2 incubator for 5 days at 37°C. After the incubation, 100 uL of Cell-Titer-Glo 2.0 reagent was added to the 96-well plate. It was then well mixed on a plate shaker for 2 minutes, and finally equilibrated at room temperature for 10 minutes. Readings were taken using a microplate reader. Finally, IC50 was used to compare the biological activity of the ADC against each cell line.

Row | Molecule | A431 cell killing IC50 [2] | also measured
1 | Vatelizumab-vc-MMAE (antibody) |  | A431 cell killing IC50 [1]: 0.054 nM
2 | B1 | 0.073 nM | 
3 | B2 | 0.028 nM | 
4 | B3 | 0.061 nM | 
5 | B4 | 0.07 nM | 
6 | B5 | 0.051 nM | 
7 | B6 | 0.049 nM | 
8 | B7 | 0.083 nM | 
9 | B8 | 0.088 nM | 
10 | B9 | 0.082 nM | 
11 | B10 | 0.057 nM | 
12 | B11 | 0.052 nM | 
13 | B12 |  | EC50 [3]: 0.3 nM; EC50 (ITGA2-His): 0.01 nM
14 | B13 |  | IC50 [4]: 0.054 nM; IC50 ([4]; listed as Vatelizumab-ve-MMAE): < 0.1 nM
15 | B14 | 0.063 nM | 
